Laboratory results as given in PMC10824102 (2024).

Columns and labels:
[1] = biological target: T1, full-length 6x-His-tagged human G3BP1 (human, UniProt Q13283 1-466); test: FRET; competition with FAM-labeled USP10 FGDF peptide probe
[2] = biological target: T1, full-length 6x-His-tagged human G3BP1; test: SPR

T1 sequence (Q13283 whole entry): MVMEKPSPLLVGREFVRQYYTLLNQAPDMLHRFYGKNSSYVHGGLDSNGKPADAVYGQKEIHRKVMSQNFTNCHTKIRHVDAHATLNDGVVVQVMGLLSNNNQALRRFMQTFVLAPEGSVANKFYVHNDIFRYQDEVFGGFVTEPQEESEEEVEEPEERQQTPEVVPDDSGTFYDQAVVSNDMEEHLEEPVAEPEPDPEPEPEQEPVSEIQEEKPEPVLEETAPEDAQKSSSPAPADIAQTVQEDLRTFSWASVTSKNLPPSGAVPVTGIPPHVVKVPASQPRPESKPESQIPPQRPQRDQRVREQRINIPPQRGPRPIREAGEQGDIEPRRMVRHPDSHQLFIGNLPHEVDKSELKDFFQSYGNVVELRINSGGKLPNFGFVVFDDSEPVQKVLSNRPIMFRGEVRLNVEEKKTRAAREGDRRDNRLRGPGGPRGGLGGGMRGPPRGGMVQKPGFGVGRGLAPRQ

B1: nsP3 25-mer peptide (peptide)
chain: LTFGDFDEHEVDALASGITFGDFDD
IC50 [1]: 3100 nM
Kd [2]: 200 nM
